Measurements published in article PMC9180478.

Key:
Myc-PCNA = Myc-PCNA (UniProt P12004); experiment: FLAG-immunoprecipitation, immunoblot; conditions: transient co-expression with Myc-PCNA; parent: 1.00
Myc-PCNA (C81R) = Myc-PCNA (C81R) (UniProt P12004); experiment: FLAG-immunoprecipitation, immunoblot; conditions: transient co-expression with Myc-PCNA (C81R); parent: 1.00

Substance: FLAG-ATAD5 (812–1844) (from UniProt Q96QE3) 815SSQD818 to GGAA
- ratio to parent (Myc-PCNA): 0.91

Substance: FLAG-ATAD5 (812–1844) (from UniProt Q96QE3) 815SSQD818 to GGAA; S824A; Q825A; D826A
- ratio to parent (Myc-PCNA (C81R)): 0.91
- ratio to parent (Myc-PCNA): 1.35
